Here are results for 19 molecules from US20240166768A1 (YEDA RESEARCH AND DEVELOPMENT, published 2024).

In one test the target is BSA (bovine, UniProt P02769). Kind of test: ELISA heatmap, OD630. The method, then: ELISA reactions were carried out using flat-bottom MaxiSorp™ 96-well plates (Invitrogen). Antigen coating was performed in PBS at 1001 per well and left overnight at 4° C. For standard dose response ELISA assays, antigens were plated at a concentration of 1 μg/ml. For comparative ELISA assays with multiple antigen targets, antigens were plated at a constant molar concentration of 50 nM. The plates were washed 5 times with washing buffer (1×PBS with 0.05% Tween-20 (Sigma-Aldrich)) and incubated with 1001 blocking buffer (1×PBS with 1% BSA) for 1 h at room temperature. The blocking solution was subsequently replaced by serial dilutions of either mono- or polyclonal antibodies or serum samples for 2.5 h at RT. For standard dose response ELISA assays, antibodies were introduced over a range of dilutions whereas for ELISA screens, antibodies were introduced at 100 nM. Serum samples were assayed at a dilution of 1:100. Plates were washed 5 times with washing buffer and then incubated with anti-human IgG secondary antibody conjugated to horseradish peroxidase (HRP) (Jackson Immuno Research) in PBS at a 1:5,000 dilution. After washing the plates for additional 5 times, the plates were developed using TMB (Thermo Fisher) and absorbance was measured at 630 nm with an ELISA microplate reader (Synergy HTX plate reader, Biotek).
Strikingly, in 3/4 patients, monoclonal antibodies that bound MMP14 with various degrees of effectiveness and specificity were detected, confirming the analysis using polyclonal patient-derived antibodies. In order to further examine the specificity of the monoclonal antibodies, the binding activity of the antibodies was tested in different dilutions by ELISA.

Test [1] addresses T1, ROI-1 peptide of MMP14 (I-A loop).
T1 construct: also called 'ROI-peptide'; 'Peptide (ROI)'
Description: peptide validation ELISA: antibody plated, biotinylated peptide titrated, streptavidin-HRP; the concentration is that of the peptide.

Chain of BSA (P02769 25-607 limits assumed): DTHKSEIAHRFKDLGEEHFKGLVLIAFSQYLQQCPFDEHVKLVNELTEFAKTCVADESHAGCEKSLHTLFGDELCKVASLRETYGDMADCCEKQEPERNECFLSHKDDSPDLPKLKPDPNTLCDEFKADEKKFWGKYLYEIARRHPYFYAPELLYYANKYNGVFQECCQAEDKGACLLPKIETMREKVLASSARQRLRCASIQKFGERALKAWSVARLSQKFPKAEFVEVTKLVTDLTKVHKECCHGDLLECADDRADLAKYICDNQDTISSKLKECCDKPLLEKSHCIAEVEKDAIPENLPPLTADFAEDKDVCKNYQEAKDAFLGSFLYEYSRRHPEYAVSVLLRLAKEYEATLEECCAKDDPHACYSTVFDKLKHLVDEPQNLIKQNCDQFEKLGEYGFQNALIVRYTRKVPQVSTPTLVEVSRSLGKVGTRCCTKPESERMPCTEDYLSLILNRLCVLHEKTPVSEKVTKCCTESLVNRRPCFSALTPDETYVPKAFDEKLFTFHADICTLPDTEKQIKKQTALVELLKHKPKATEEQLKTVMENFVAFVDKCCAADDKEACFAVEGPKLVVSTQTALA

B1: T24 (antibody, V domains shown)
VH: QLQLQESGSGLVKPSQTLSLTCAVSGGSISSSDYSWSWIRQPPGKGLEWIGYIYHSGNTYYNPSVKSRVTISLDSSKNHFSLTLTSVTAADTAIYYCARDPGGNSGWFDPWGQGALVTVSS
VL: SYELTQPTSVSVSPGQTARITCSGDALPSQYAYWYQQKPGQAPILIIYKDNKRPSGIPERFSGSSSGTRVTLTISGVQPEDEADYYCQSADRSGRYVFGTGTRVPVL
With B1, the binding result with BSA was “no binding (tested: 100 nM)”.

B2: T29 (antibody, V domains shown)
VH: QLQLQESGPGLVKPSETLSLTCTVSGGSISSSSYYWGWIRQPPGKGLEWIGSLSYTGSTYYNPSLKSRVTISLDTSKNQFSLKLSSVTAADTAVYYCARESGSGGTHTDSWGQGTLVSVSS
VL: QSVLTQPPSVSAAPGQKVTISCSGSSSNIGNNYVSWYQQLPGTAPKLLIYDNNKRPSGIPDRFSGSKSGTSATLGISGLQTGDEADYYCGTWDSSLSAWVFGGGTKLTVL
As for B2, in the test with BSA, the binding result is listed as “no binding (tested: 100 nM)”.

B3: T25 (antibody, V domains shown)
VH: EVQLVESGGGLVKPGGSLRLSCAPSGFIFSNTWMSWVRQAPGKGLEWVGHIKSKADGGTTDYAAPVKGRFTISRDDSRNTLYLQMDSLKTEDTGVYYCTTGWYSTLDYWGQGTLVTVSS
VL: QSVLTQPPSASGTPGQRVTISCSGSTSNVGTNYVYWCQQFPGAAPKLLMYRNDRRPSGVPDRFSGSKSGTSASLAISGLRSEDEADYYCAAWDDSLSSWVFGGGTKLTVL
B3: the binding result in the test with BSA is given as “no binding (tested: 100 nM)”.

B4: T18 (antibody, V domains shown)
VH: EVQLVESGGGLVQPGGSLRLSCAASGFTFSSYWMTWVRQAPGKGLEWVANIKPDGSEKNYVDSVKGRFTISRDNAENSLYLQMNSLRAEDTAVFYCARDLRYCSSTSCSPALDYWGQGTLLTVSS
VL: DIQMTQSPSSLSASVGDRVTITCRASQSIASYLNWYQQKPGRAPKLLIYAASTSGVPSRFSGSGSGTDFTLTISSLQPEDFATYYCQQSYTTPRTFGQGTKVEIK
For B4, the binding result with BSA is listed as “no binding (tested: 100 nM)”.

B5: T5 (antibody, V domains shown)
VH: QVQLVESGGGVVQPGRSLRLSCAASGFTFSSHAMHWVRQAPGKGLQWVALISYDGYNKYYAESVQGRFTLSRDNSKNTLYLQMNSLRAEDTAVYYCARDRDSSGYIFDYWGQGTLVTVSS
VL: DIQMTQSPSSLSASVGDRVTITCQASQDISNYLNWYQQKPGKAPKVLIYDASNLERGVPSRFSGSGSGTAFTFTISSLQPEDIATYYCQQYDNLPSFGGGTKVEIK
As for B5, the binding result in the test with BSA was “no binding (tested: 100 nM)”.

B6: T14 (antibody, human IgG1, V domains shown)
VH: EVQLVESGGGLVQPGGSLRLSCAVSGFTFNNYWMTWVRQAPGKGLEWVANIKGDGSEKTYVDSVKGRFTVSRDNANNSLHLQMKSLRAEDTAVYYCARVGGGDYYDSSGYYWLDTWGQGTLVTVSS
VL: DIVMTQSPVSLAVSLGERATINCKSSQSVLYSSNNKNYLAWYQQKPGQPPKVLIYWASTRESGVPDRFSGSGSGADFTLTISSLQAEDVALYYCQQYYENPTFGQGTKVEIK
Regarding B6, the binding result in the test with BSA is “no binding (tested: 100 nM)”.

B7: T6 (antibody, V domains shown)
VH: QVQLQQSGPGLVKPSQTLSLTCAISGDSVSSNSAAWNWIRQSPSRGLEWLGRTYYRSRWYSDYAFSVRSRIIVKADTSRNLFSLQLNSMTPEDTAIYYCARDLGIAAADWFDSWGQGTLVTVSS
VL: EIVMTQSPATLSVSPGDRATLSCRASQSVSNRLAWYQQKPGQAPRLLIYDASTRATDIPARFSGSGSGTEFTLTISSLQSEDFAIYFCHQYHNWPGFGPGTKLEIK
Turning to B7, the binding result with BSA is “no binding (tested: 100 nM)”.

B8: T4 (antibody, V domains shown)
VH: QVQLVQSGGEVKKPGASAKVSCKTSGFTFTSYGISWVRQAPGQGLEWMGWINTYNGNTKYAQRLQGRVSMTTDTSTNTAYMELRSLRSDDTAVYYCARGQGRYGDYIYNHWGQGTLVIVSS
VL: DIQMTQSPSTLSASVGDRVTITCRASQIISSWVAWYQQRPGKAPKLLIFDASILESGVPSRFSGSATGTEFSLTISGLQPDDFATYYCQHYNDFPLSFGGGTKVEIK
With B8, in the test with BSA, the binding result is listed as “no binding (tested: 100 nM)”.

B9: T22 (antibody, V domains shown)
VH: QVQLVQSGAEVKKPGSSVKVACKASGGTFSRSAISWVRQAPGQGLEWMGGIIRIFNTADYAQKFQGRVTMSADESTSTAYMELSSLRSEDTAVYYCATSSLSDIVVAEGAFVDHYFGMDVWGQGTTVTVSS
VL: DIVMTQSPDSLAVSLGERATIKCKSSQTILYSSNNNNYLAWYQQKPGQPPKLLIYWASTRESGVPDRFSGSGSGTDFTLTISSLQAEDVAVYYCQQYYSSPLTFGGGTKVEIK
As to B9, in the test with BSA, the binding result is reported as “no binding (tested: 100 nM)”.

B10: T21 (antibody, V domains shown)
VH: QVQLQESGPGLVKPSQTLSLTCTVSGGSFSNSNYYWSWIRQPAGKGLEWIGHIYASAITHYNPSLKSRVTISKDTSKNQFSLNLRSVTAADTAVYFCARGFRLAAEAYYHGMDVWGQGTTVTVSS
VL: DIQMTQSPSSLSASVGDRVTITCRASQSINNFLNWYQQKPGKAPKLLIYGASSLQSGVPSRFSASGSGTDFSLTISGLIPEDFAIYYCQQSDTTPWTFGQGTKVDIK
Take B10: in the test with BSA, the binding result is recorded as “no binding (tested: 100 nM)”.

B11: T15 (antibody, human IgG1, V domains shown)
VH: EVQLVESGGGLVQPGGSLRLSCAASGFTFNNYWMTWVRQAPGKGLEWVANVNQDGNEKNYVDSVRGRFTISRDNAKNSLHLQMKSLISDDTAVYYCARVGGGDYYDSSGYYWFDTWGQGALVTVSS
VL: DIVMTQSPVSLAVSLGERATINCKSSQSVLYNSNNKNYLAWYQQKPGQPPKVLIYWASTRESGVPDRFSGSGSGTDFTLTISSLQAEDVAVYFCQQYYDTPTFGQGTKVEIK
As to B11, the binding result with BSA is given as “no binding (tested: 100 nM)”.

B12: T13 (antibody, V domains shown)
VH: EVQLVESGGGLVQPGGSLRLSCAASGFIFSKHDMYWVRQRPGKGLEWVSRIGDAGDTYYAGSVKGRFTIFRENAKNTLYFQMNRLTDGDTAVYYCGRGMAVAGFPLDVWGRGTRVTVTS
VL: EIVMTQSPATLSVSPGERATLSCRASQNIHINLAWYQQKPGQAPRLIIYAASTRAAGIPARFSASGSGTEFTLTISSLQSEDFAVYYCQQFNPWSPWTFGQGTKVEVK
notes: The digit 1 is dropped in many places of the text; also called mAb T13
Turning to B12, the EC50 (read off the curve) (in general, the concentration giving half of the maximal effect) in test [1] is approximately 2000 ng/mL.

B13: T28 (antibody, V domains shown)
VH: QVQLQESGPGLVKPSETLSLSCAVSGGSIRGYSWSWIRQPPGKGLEWIADMLYTGTTTFNPSLKSRVTISVDTSKNQFSLKLTSVTAADTAVYYCARGPTVSGPIVVDYWGPGTLVTVSS
VL: NFMLTQPHSVSESPGKTVTISCTGSSGSIASNYVQWYQQRPGSAPTTLIYEDKQRPSGVPDRFSGSIDSSTNSASLTISGLKTEDEADYYCQSFDSSNRWVFGGGTKVTVL
In the case of B13, the binding result with BSA is given as “no binding (tested: 100 nM)”.

B14: T17 (antibody, V domains shown)
VH: EVQLVESGGGLVQPGGSLTLSCTASGFTYFGFAMTWVRQPPGKGLEWISSINLLSGTTYYVDSVKGRFTISRDNSKNTVFLQMKGLTAEDTAVYYCAKVGATQDLHYFDFWGQGTLVTVSS
VL: DIQMTQSPSTLSASVGDRVTITCRASQSVYRWLAWYQQKPGEAPKLLVYGAFSLQSGVPPRFSGSGYGTEFTLTISSLQPDDFATYYCQQYNSHSTFGQGTKVEVK
With B14, in the test with BSA, the binding result was “no binding (tested: 100 nM)”.

B15: T19 (antibody, V domains shown)
VH: EVQLLESGGGLVQPGGSLRLSCAASGFTFDNYGMSWVRQAPGKGLEWVSVISSGGVGTYYADSVKGRFIISRDNAKNTLYLQMNSLRAEDTAVYYCAKDLLRYESSGYSPWGQGTLVTVSS
VL: EIVLTQSPATLSLSPGDRATLSCRASQSVNTYLAWYQHKPGQAPRLLIYDASKRATGIPARFSGSGSGTDFTLTISSLEPEDFAVYYCQQRANRPPLTFGGGTKVEIK
Turning to B15, the binding result in the test with BSA is recorded as “no binding (tested: 100 nM)”.

B16: T26 (antibody, V domains shown)
VH: QVQLVQSGSEVKKPGASVKVSCKASGYTFTSNGISWVRQAPGQGLEWMGWISAYNGNTNYAQKFQGRVSLTTDTSTSTAYMELRNLTSDDTARYYCARSRGHYGDYLYGYWGQGTLVTVSS
VL: QSVLTQPPSVSGAPGQRVTISCTGSSSNIGAGYDVHWYQQLPGTAPKLLIHGNSNRPSGVPDRFSGSKSGTSASLAITGLQAEDEADYYCQSFDSSLSGSVVFGGGTKLTVL
Turning to B16, the binding result with BSA was “no binding (tested: 100 nM)”.

B17: T1 (antibody, V domains shown)
VH: EVQLVESGGGLEQPGRSLRLSCAASGFSFGDNAMTWFRQAPGKGLEWVGIIRAKGYGGTTEYAASVKGRFTISRDDSKSIAFLQMNNVKVEDTGVYYCAKYASGWEVGFDPWGQGTLVTVSS
VL: AIQMTQSPSSLSASVGDRVTITCRASQFIRNDLGWYQQKPGRAPKLLIYAASGLHSGVPARFSGNGSATDFTLTITSLQPEDFATYYCLQDYNFPWTFGQGTKVEIK
B17: in the test with BSA, the binding result is given as “no binding (tested: 100 nM)”.

B18: T2 (antibody, V domains shown)
VH: QVQLVQSGAEVKKPGASVNVSCKASGYNFKAYGVGWVRQAPGQGLEWMGWITPYNGKTNYAQKIQGRVTMTTDTSTTTAYMELRSLQPDDTAMYFCARTPAALASFDYWSQGTLVTVSS
VL: DIQMTQSPSTLSASVGDRVTITCRASQSISSWLAWYQQKAGKAPKLLIFDASTLQSGVPSRFSGSGSGTEFSLTISSLQPDDFATYYCQQYYSYSTFGQGTKVEIR
Regarding B18, the binding result with BSA was “no binding (tested: 100 nM)”.

B19: T20 (antibody, V domains shown)
VH: QVQLQESGPGLLKPSQTLSLTCTVSGAFLNSGGYYWTWIRQHPGKGLEWIGYIYYSGTTYYNPSLKSRVTISVDTSKNQFSLNVNSVIAADTAVYYCARAPRIPFGEVIGGAAFDVWGQGTTVIVSS
VL: EIVLTQSPGTLSLSPGERATLSCRASQSVTSNFVGWYQQKPGQAPRLLIYAASSRPTGIPERFSGSGSGTDFTLTISRLEPEDFAVYYCEQYGSSPRTFGPGTKVEIK
For the molecule B19, the binding result with BSA is reported as “no binding (tested: 100 nM)”.
